NanoDSF thermal unfolding temperature, Relative activity of maturated deamidase (% initial rate) and Leakage activity data for 36 molecules are collected here from US20250215412A1 (NOVOZYMES A S, published 2025).

Where “and” joins values, the source holds several entries; their conditions need not be identical. Identical values can stand only once. A value given as a limit tells only on which side of the number the result lay.

To fix the notation:
T1: Chryseobacterium sp-62563 deamidase polypeptide (second polypeptide, deamidase domain), wildtype (Chryseobacterium sp-62563)
T1 sequence: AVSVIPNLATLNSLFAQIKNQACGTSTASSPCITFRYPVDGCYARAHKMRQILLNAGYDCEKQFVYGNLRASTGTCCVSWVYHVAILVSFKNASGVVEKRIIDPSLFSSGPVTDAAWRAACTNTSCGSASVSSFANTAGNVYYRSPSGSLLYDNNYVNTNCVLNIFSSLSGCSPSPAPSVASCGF

B1: Chryseobacterium sp-62563 propeptide V25H (protein)
chain: NQDPNLVAKESNETAMKDFGKTVPHGIEKEDGKFKISFMVTAQPYEIKDSKENAAYISMIKTAVENETPIHVFLKANTNEIAKVDKATDDDIRYFKSVFTKEVKEENRK
B2: Chryseobacterium sp-62563 propeptide Q43D (protein)
chain: NQDPNLVAKESNETAMKDFGKTVPVGIEKEDGKFKISFMVTADPYEIKDSKENAAYISMIKTAVENETPIHVFLKANTNEIAKVDKATDDDIRYFKSVFTKEVKEENRK
B3: Chryseobacterium sp-62563 propeptide T41E (protein)
chain: NQDPNLVAKESNETAMKDFGKTVPVGIEKEDGKFKISFMVEAQPYEIKDSKENAAYISMIKTAVENETPIHVFLKANTNEIAKVDKATDDDIRYFKSVFTKEVKEENRK
B4: Chryseobacterium sp-62563 propeptide Y45A (protein)
chain: NQDPNLVAKESNETAMKDFGKTVPVGIEKEDGKFKISFMVTAQPAEIKDSKENAAYISMIKTAVENETPIHVFLKANTNEIAKVDKATDDDIRYFKSVFTKEVKEENRK
B5: Chryseobacterium sp-62563 propeptide Y45K (protein)
chain: NQDPNLVAKESNETAMKDFGKTVPVGIEKEDGKFKISFMVTAQPKEIKDSKENAAYISMIKTAVENETPIHVFLKANTNEIAKVDKATDDDIRYFKSVFTKEVKEENRK
B6: Chryseobacterium sp-62563 propeptide Q43R (protein)
chain: NQDPNLVAKESNETAMKDFGKTVPVGIEKEDGKFKISFMVTARPYEIKDSKENAAYISMIKTAVENETPIHVFLKANTNEIAKVDKATDDDIRYFKSVFTKEVKEENRK
B7: Chryseobacterium sp-62563 propeptide A42K (protein)
chain: NQDPNLVAKESNETAMKDFGKTVPVGIEKEDGKFKISFMVTKQPYEIKDSKENAAYISMIKTAVENETPIHVFLKANTNEIAKVDKATDDDIRYFKSVFTKEVKEENRK
B8: Chryseobacterium sp-62563 propeptide K33E (protein)
chain: NQDPNLVAKESNETAMKDFGKTVPVGIEKEDGEFKISFMVTAQPYEIKDSKENAAYISMIKTAVENETPIHVFLKANTNEIAKVDKATDDDIRYFKSVFTKEVKEENRK
B9: Chryseobacterium sp-62563 propeptide Q43H (protein)
chain: NQDPNLVAKESNETAMKDFGKTVPVGIEKEDGKFKISFMVTAHPYEIKDSKENAAYISMIKTAVENETPIHVFLKANTNEIAKVDKATDDDIRYFKSVFTKEVKEENRK
B10: Chryseobacterium sp-62563 propeptide Y45N (protein)
chain: NQDPNLVAKESNETAMKDFGKTVPVGIEKEDGKFKISFMVTAQPNEIKDSKENAAYISMIKTAVENETPIHVFLKANTNEIAKVDKATDDDIRYFKSVFTKEVKEENRK
B11: Chryseobacterium sp-62563 propeptide K35E (protein)
chain: NQDPNLVAKESNETAMKDFGKTVPVGIEKEDGKFEISFMVTAQPYEIKDSKENAAYISMIKTAVENETPIHVFLKANTNEIAKVDKATDDDIRYFKSVFTKEVKEENRK
B12: Chryseobacterium sp-62563 propeptide V23S (protein)
chain: NQDPNLVAKESNETAMKDFGKTSPVGIEKEDGKFKISFMVTAQPYEIKDSKENAAYISMIKTAVENETPIHVFLKANTNEIAKVDKATDDDIRYFKSVFTKEVKEENRK
B13: Chryseobacterium sp-62563 propeptide F38C (protein)
chain: NQDPNLVAKESNETAMKDFGKTVPVGIEKEDGKFKISCMVTAQPYEIKDSKENAAYISMIKTAVENETPIHVFLKANTNEIAKVDKATDDDIRYFKSVFTKEVKEENRK
B14: Chryseobacterium sp-62563 propeptide F38A (protein)
chain: NQDPNLVAKESNETAMKDFGKTVPVGIEKEDGKFKISAMVTAQPYEIKDSKENAAYISMIKTAVENETPIHVFLKANTNEIAKVDKATDDDIRYFKSVFTKEVKEENRK
B15: Chryseobacterium sp-62563 propeptide T41D (protein)
chain: NQDPNLVAKESNETAMKDFGKTVPVGIEKEDGKFKISFMVDAQPYEIKDSKENAAYISMIKTAVENETPIHVFLKANTNEIAKVDKATDDDIRYFKSVFTKEVKEENRK
B16: Chryseobacterium sp-62563 propeptide Y45G (protein)
chain: NQDPNLVAKESNETAMKDFGKTVPVGIEKEDGKFKISFMVTAQPGEIKDSKENAAYISMIKTAVENETPIHVFLKANTNEIAKVDKATDDDIRYFKSVFTKEVKEENRK
B17: Chryseobacterium sp-62563 propeptide Q43K (protein)
chain: NQDPNLVAKESNETAMKDFGKTVPVGIEKEDGKFKISFMVTAKPYEIKDSKENAAYISMIKTAVENETPIHVFLKANTNEIAKVDKATDDDIRYFKSVFTKEVKEENRK
B18: Chryseobacterium sp-62563 propeptide F38T (protein)
chain: NQDPNLVAKESNETAMKDFGKTVPVGIEKEDGKFKISTMVTAQPYEIKDSKENAAYISMIKTAVENETPIHVFLKANTNEIAKVDKATDDDIRYFKSVFTKEVKEENRK
B19: Chryseobacterium sp-62563 propeptide V40P (protein)
chain: NQDPNLVAKESNETAMKDFGKTVPVGIEKEDGKFKISFMPTAQPYEIKDSKENAAYISMIKTAVENETPIHVFLKANTNEIAKVDKATDDDIRYFKSVFTKEVKEENRK
B20: Chryseobacterium sp-62563 propeptide Q43V (protein)
chain: NQDPNLVAKESNETAMKDFGKTVPVGIEKEDGKFKISFMVTAVPYEIKDSKENAAYISMIKTAVENETPIHVFLKANTNEIAKVDKATDDDIRYFKSVFTKEVKEENRK
B21: Chryseobacterium sp-62563 propeptide Y45Q (protein)
chain: NQDPNLVAKESNETAMKDFGKTVPVGIEKEDGKFKISFMVTAQPQEIKDSKENAAYISMIKTAVENETPIHVFLKANTNEIAKVDKATDDDIRYFKSVFTKEVKEENRK

The assay deals with T1, Chryseobacterium sp-62563 deamidase polypeptide (second polypeptide, deamidase domain), wildtype (Chryseobacterium sp-62563). Description: cell-based or functional assay.
“Chryseobacterium sp-62563 propeptide D90DA” had a NanoDSF thermal unfolding temperature of 80.3 ° C and a Relative activity of maturated deamidase (% initial rate) greater than 100. For “Chryseobacterium sp-62563 propeptide T100TA”, the Relative activity of maturated deamidase (% initial rate) was found to be 41.

The molecule “Chryseobacterium sp-62563 propeptide S97ST” returned a NanoDSF thermal unfolding temperature of 81.6 ° C and a Relative activity of maturated deamidase (% initial rate) of 99. In the same order, the values of “Chryseobacterium sp-62563 propeptide S97SY” are 82 ° C and 68. The corresponding values for “Chryseobacterium sp-62563 propeptide F95*” are 77.1 ° C and greater than 100. For “Chryseobacterium sp-62563 propeptide I92*”, the NanoDSF thermal unfolding temperature was found to be 77.5 ° C.

Consider “Chryseobacterium sp-62563 propeptide S97SK”, for which the NanoDSF thermal unfolding temperature came out at 81.4 ° C and the Relative activity of maturated deamidase (% initial rate) was greater than 100.

Take “Chryseobacterium sp-62563 propeptide K96*”: the NanoDSF thermal unfolding temperature was 79.5 ° C and the Relative activity of maturated deamidase (% initial rate) is greater than 100. As to “Chryseobacterium sp-62563 propeptide P44PA”, the NanoDSF thermal unfolding temperature was 69.2 ° C.

In turn, “Chryseobacterium sp-62563 propeptide T100*” returned a NanoDSF thermal unfolding temperature of 81.7 ° C and a Relative activity of maturated deamidase (% initial rate) of 98. In the same order, the values of “Chryseobacterium sp-62563 propeptide F95FA” are 79.8 ° C and greater than 100. For the molecule “Chryseobacterium sp-62563 propeptide V98*”, the NanoDSF thermal unfolding temperature was found to be 78.7 ° C. In turn, “Chryseobacterium sp-62563 propeptide S97SF” displayed a Relative activity of maturated deamidase (% initial rate) of 50. In turn, “Chryseobacterium sp-62563 propeptide S97SS” registered a NanoDSF thermal unfolding temperature of 81.1 ° C and a Relative activity of maturated deamidase (% initial rate) greater than 100. “Chryseobacterium sp-62563 propeptide S97SI” came in with a Relative activity of maturated deamidase (% initial rate) of 30. Regarding B1, the Leakage activity was determined as 1% and the Relative activity of maturated deamidase (% initial rate) is 76. In the same order, the values of B2 are 0% and greater than 100.

As for B3, the Leakage activity is 0% and the Relative activity of maturated deamidase (% initial rate) was 67. In the same order, the values of B4 are 0% and 40.

B5 displayed a Leakage activity of 0% and a Relative activity of maturated deamidase (% initial rate) of 48.

With B6, the Leakage activity was 0% and the Relative activity of maturated deamidase (% initial rate) was 59. In turn, B7 returned a Leakage activity of 0% and a Relative activity of maturated deamidase (% initial rate) greater than 100.

In turn, B8 had a Leakage activity of 0% and a Relative activity of maturated deamidase (% initial rate) of 66. B9 showed a Leakage activity of 0%. As to B10, the Leakage activity was found to be 2% and the Relative activity of maturated deamidase (% initial rate) was 73. In the same order, the values of B11 are 0% and greater than 100. On to B12, for which the Leakage activity is 10% and 7%; the NanoDSF thermal unfolding temperature amounted to 69.8 ° C; the Relative activity of maturated deamidase (% initial rate) turned out to be 94. Consider B13, for which the Leakage activity amounted to 26%, the NanoDSF thermal unfolding temperature was 76.2 ° C and the Relative activity of maturated deamidase (% initial rate) was found to be 83. Molecule B14 gave a Leakage activity of 2% and a Relative activity of maturated deamidase (% initial rate) of 72. B15 yielded a Leakage activity of 0%.

On to B16, for which the Leakage activity stood at 2%, the NanoDSF thermal unfolding temperature came to 65.2 ° C and the Relative activity of maturated deamidase (% initial rate) is greater than 100. B17 showed a Leakage activity of 3% and a Relative activity of maturated deamidase (% initial rate) of 64. In the same order, the values of B18 are 2% and 93. The corresponding values for B19 are 0% and 39. As for B20, the Leakage activity was determined as 0%. Molecule B21 gave a Leakage activity of 6% and a Relative activity of maturated deamidase (% initial rate) of 88.
